Reference: patent US20240383990A1 (DIAGONAL THERAPEUTICS, published 2024)

T1: IL-18 receptor (IL-18Rα and IL-18Rβ) on HEK-Blue IL-18 cells (UniProt Q13478 19-541; O95256 20-599, limits assumed)
T1 sequence (looked up) 1: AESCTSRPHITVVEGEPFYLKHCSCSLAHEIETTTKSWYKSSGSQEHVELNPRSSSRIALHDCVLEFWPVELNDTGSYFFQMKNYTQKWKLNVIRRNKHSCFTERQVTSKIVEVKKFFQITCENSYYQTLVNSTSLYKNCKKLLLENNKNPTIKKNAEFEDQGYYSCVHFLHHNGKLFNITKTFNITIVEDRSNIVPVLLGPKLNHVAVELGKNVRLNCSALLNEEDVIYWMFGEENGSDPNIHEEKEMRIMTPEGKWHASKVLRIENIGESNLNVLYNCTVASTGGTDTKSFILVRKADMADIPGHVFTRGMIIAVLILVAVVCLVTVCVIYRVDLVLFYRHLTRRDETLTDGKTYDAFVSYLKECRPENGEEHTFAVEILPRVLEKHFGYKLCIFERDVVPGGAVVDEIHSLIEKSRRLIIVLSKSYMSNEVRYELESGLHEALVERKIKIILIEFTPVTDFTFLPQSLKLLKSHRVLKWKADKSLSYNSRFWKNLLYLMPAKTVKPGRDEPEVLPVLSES
T1 sequence (looked up) 2: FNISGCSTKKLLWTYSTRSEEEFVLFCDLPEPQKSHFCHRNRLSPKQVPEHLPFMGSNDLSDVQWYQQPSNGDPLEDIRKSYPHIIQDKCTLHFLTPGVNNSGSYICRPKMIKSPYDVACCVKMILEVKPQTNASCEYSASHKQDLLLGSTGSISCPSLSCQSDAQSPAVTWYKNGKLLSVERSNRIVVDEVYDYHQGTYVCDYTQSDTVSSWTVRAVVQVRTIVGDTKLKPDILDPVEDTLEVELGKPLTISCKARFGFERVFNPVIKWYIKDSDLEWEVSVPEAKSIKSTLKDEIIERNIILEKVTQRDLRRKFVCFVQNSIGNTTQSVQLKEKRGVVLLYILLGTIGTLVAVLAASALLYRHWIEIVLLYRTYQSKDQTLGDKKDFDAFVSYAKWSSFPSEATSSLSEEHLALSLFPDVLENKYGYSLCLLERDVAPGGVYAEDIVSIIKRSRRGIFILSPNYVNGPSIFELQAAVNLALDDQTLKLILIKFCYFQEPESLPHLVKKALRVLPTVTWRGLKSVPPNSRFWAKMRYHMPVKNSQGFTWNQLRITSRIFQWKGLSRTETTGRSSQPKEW

B1: DGL219 (bispecific antibody)
chain 1: QVQLVESGGGLVQAGGSLRLSCAASGRTFSKHAMGWFRQAPGKEREFVAAIDWSGGSTYYADSVKGRFTISRDNAKNTVYLQMDSLKPEDTAVYYCAADSYTDYAQLWLPELESEYDYWGQGTLVTVSSPLAPDKTHTCPPCPAPEAAGAPSVFLFPPKPKDTLMISRTPEVTCVVVDVSHEDPEVKFNWYVDGVEVHNAKTKPREEQYNSTYRVVSVLTVLHQDWLNGKEYKCKVSNKALPAPIEKTISKAKGQPREPQVCTLPPSRDELTKNQVSLSCAVKGFYPSDIAVEWESNGQPENNYKTTPPVLDSDGSFFLVSKLTVDKSRWQQGNVFSCSVMHEALHNHYTQKSLSLSPGWSHPQFEK
chain 2: not shown
B2: DGL218 (bispecific antibody)
chain 1: QVQLVESGGGLVQAGGSLRLSCAASGRTFSKHAMGWFRQAPGKEREFVAAIDWSGGSTYYADSVKGRFTISRDNAKNTVYLQMDSLKPEDTAVYYCAADSYTDYAQLWLPELESEYDYWGQGTLVTVSSCPPCPAPEAAGAPSVFLFPPKPKDTLMISRTPEVTCVVVDVSHEDPEVKFNWYVDGVEVHNAKTKPREEQYNSTYRVVSVLTVLHQDWLNGKEYKCKVSNKALPAPIEKTISKAKGQPREPQVCTLPPSRDELTKNQVSLSCAVKGFYPSDIAVEWESNGQPENNYKTTPPVLDSDGSFFLVSKLTVDKSRWQQGNVFSCSVMHEALHNHYTQKSLSLSPGWSHPQFEK
chain 2: not shown
B3: DGL220 (bispecific antibody)
chain 1: QVQLVESGGGLVQAGGSLRLSCAASGRTFSKHAMGWFRQAPGKEREFVAAIDWSGGSTYYADSVKGRFTISRDNAKNTVYLQMDSLKPEDTAVYYCAADSYTDYAQLWLPELESEYDYWGQGTLVTVSSPLAPCPPCPAPEAAGAPSVFLFPPKPKDTLMISRTPEVTCVVVDVSHEDPEVKFNWYVDGVEVHNAKTKPREEQYNSTYRVVSVLTVLHQDWLNGKEYKCKVSNKALPAPIEKTISKAKGQPREPQVCTLPPSRDELTKNQVSLSCAVKGFYPSDIAVEWESNGQPENNYKTTPPVLDSDGSFFLVSKLTVDKSRWQQGNVFSCSVMHEALHNHYTQKSLSLSPGWSHPQFEK
chain 2: not shown
B4: DGL211 (bispecific antibody)
chain 1: QVQLVESGGGLVQAGGSLRLSCAASGRTFSKHAMGWFRQAPGKEREFVAAIDWSGGSTYYADSVKGRFTISRDNAKNTVYLQMDSLKPEDTAVYYCAADSYTDYAQLWLPELESEYDYWGQGTLVTVSSEKSYGPPCPPCPAPEAAGAPSVFLFPPKPKDTLMISRTPEVTCVVVDVSHEDPEVKFNWYVDGVEVHNAKTKPREEQYNSTYRVVSVLTVLHQDWLNGKEYKCKVSNKALPAPIEKTISKAKGQPREPQVCTLPPSRDELTKNQVSLSCAVKGFYPSDIAVEWESNGQPENNYKTTPPVLDSDGSFFLVSKLTVDKSRWQQGNVFSCSVMHEALHNHYTQKSLSLSPGWSHPQFEK
chain 2: QLQLVESGGGLVQAGGSLRLSCAASRSITFSHNVMGWYRQAPGKQRELVASIGSGGSTNYVDSVKGRATISRDNAKKTVYLQMNSLKPEDTAVYYCGVVVGVYRGSLGQGTLVTVSSEKSYGPPCPPCPAPEAAGAPSVFLFPPKPKDTLMISRTPEVTCVVVDVSHEDPEVKFNWYVDGVEVHNAKTKPREEQYNSTYRVVSVLTVLHQDWLNGKEYKCKVSNKALPAPIEKTISKAKGQPREPQVYTLPPCRDELTKNQVSLWCLVKGFYPSDIAVEWESNGQPENNYKTTPPVLDSDGSFFLYSKLTVDKSRWQQGNVFSCSVMHEALHNHYTQKSLSLSPGEPEA
B5: DGL210 (bispecific antibody)
chain 1: QVQLVESGGGLVQAGGSLRLSCAASGRTFSKHAMGWFRQAPGKEREFVAAIDWSGGSTYYADSVKGRFTISRDNAKNTVYLQMDSLKPEDTAVYYCAADSYTDYAQLWLPELESEYDYWGQGTLVTVSSGGGGSGGGGSGGGGSGGGGSCPPCPAPEAAGAPSVFLFPPKPKDTLMISRTPEVTCVVVDVSHEDPEVKFNWYVDGVEVHNAKTKPREEQYNSTYRVVSVLTVLHQDWLNGKEYKCKVSNKALPAPIEKTISKAKGQPREPQVCTLPPSRDELTKNQVSLSCAVKGFYPSDIAVEWESNGQPENNYKTTPPVLDSDGSFFLVSKLTVDKSRWQQGNVFSCSVMHEALHNHYTQKSLSLSPGWSHPQFEK
chain 2: QLQLVESGGGLVQAGGSLRLSCAASRSITFSHNVMGWYRQAPGKQRELVASIGSGGSTNYVDSVKGRATISRDNAKKTVYLQMNSLKPEDTAVYYCGVVVGVYRGSLGQGTLVTVSSGGGGSGGGGSGGGGSGGGGSCPPCPAPEAAGAPSVFLFPPKPKDTLMISRTPEVTCVVVDVSHEDPEVKFNWYVDGVEVHNAKTKPREEQYNSTYRVVSVLTVLHQDWLNGKEYKCKVSNKALPAPIEKTISKAKGQPREPQVYTLPPCRDELTKNQVSLWCLVKGFYPSDIAVEWESNGQPENNYKTTPPVLDSDGSFFLYSKLTVDKSRWQQGNVFSCSVMHEALHNHYTQKSLSLSPGEPEA
B6: DGL212 (bispecific antibody)
chain 1: QVQLVESGGGLVQAGGSLRLSCAASGRTFSKHAMGWFRQAPGKEREFVAAIDWSGGSTYYADSVKGRFTISRDNAKNTVYLQMDSLKPEDTAVYYCAADSYTDYAQLWLPELESEYDYWGQGTLVTVSSDKTHTCPPCPAPEAAGAPSVFLFPPKPKDTLMISRTPEVTCVVVDVSHEDPEVKFNWYVDGVEVHNAKTKPREEQYNSTYRVVSVLTVLHQDWLNGKEYKCKVSNKALPAPIEKTISKAKGQPREPQVCTLPPSRDELTKNQVSLSCAVKGFYPSDIAVEWESNGQPENNYKTTPPVLDSDGSFFLVSKLTVDKSRWQQGNVFSCSVMHEALHNHYTQKSLSLSPGWSHPQFEK
chain 2: not shown
B7: DGL213 (bispecific antibody)
chain 1: B6 chain 1
chain 2: QLQLVESGGGLVQAGGSLRLSCAASRSITFSHNVMGWYRQAPGKQRELVASIGSGGSTNYVDSVKGRATISRDNAKKTVYLQMNSLKPEDTAVYYCGVVVGVYRGSLGQGTLVTVSSCPPCPAPEAAGAPSVFLFPPKPKDTLMISRTPEVTCVVVDVSHEDPEVKFNWYVDGVEVHNAKTKPREEQYNSTYRVVSVLTVLHQDWLNGKEYKCKVSNKALPAPIEKTISKAKGQPREPQVYTLPPCRDELTKNQVSLWCLVKGFYPSDIAVEWESNGQPENNYKTTPPVLDSDGSFFLYSKLTVDKSRWQQGNVFSCSVMHEALHNHYTQKSLSLSPGEPEA
B8: DGL216 (bispecific antibody)
chain 1: B6 chain 1
chain 2: B5 chain 2
B9: DGL217 (bispecific antibody)
chain 1: B6 chain 1
chain 2: B4 chain 2
B10: DGL215 (bispecific antibody)
chain 1: B6 chain 1
chain 2: QLQLVESGGGLVQAGGSLRLSCAASRSITFSHNVMGWYRQAPGKQRELVASIGSGGSTNYVDSVKGRATISRDNAKKTVYLQMNSLKPEDTAVYYCGVVVGVYRGSLGQGTLVTVSSPLAPCPPCPAPEAAGAPSVFLFPPKPKDTLMISRTPEVTCVVVDVSHEDPEVKFNWYVDGVEVHNAKTKPREEQYNSTYRVVSVLTVLHQDWLNGKEYKCKVSNKALPAPIEKTISKAKGQPREPQVYTLPPCRDELTKNQVSLWCLVKGFYPSDIAVEWESNGQPENNYKTTPPVLDSDGSFFLYSKLTVDKSRWQQGNVFSCSVMHEALHNHYTQKSLSLSPGEPEA
B11: DGL214 (bispecific antibody)
chain 1: B6 chain 1
chain 2: not shown

What follows are binders tested against T1, IL-18 receptor (IL-18Rα and IL-18Rβ) on … (assay: cell-based or functional assay).

Row | HEK-Blue assay, % human IL18 [% human IL18] | Binder
1 | 35 | B1
2 | 44 | B2
3 | 53 | B3

Molecular target: T1, IL-18 receptor (IL-18Rα and IL-18Rβ) on …
Experiment: cell-based or functional assay
Remark: another data set of the same source

Row | HEK-Blue assay, % human IL-18 | Binder
4 | 50 % of human IL18 activity | B4
5 | 34 % of human IL18 activity | B5
6 | 41 % of human IL18 activity | B6

Molecular target: T1, IL-18 receptor (IL-18Rα and IL-18Rβ) on …
Experiment: cell-based or functional assay
Remark: another data set of the same source

Row | HEK-Blue assay, % human IL18 [% human IL18] | Binder
7 | 42 | B7
8 | 22 | B8
9 | 45 | B9
10 | 40 | B10
11 | 31 | B11
